The target in the experiment is T1, Mutant OA chain (long chain, CH1-hinge-CH2-CH3 with P395K, P396K, V397K) (human, UniProt P01857-1 1-330 = IgG part, P395K; P396K; V397K).
T1 construct: domain: CH1-hinge-CH2-CH3; Expressed alone it is expected as a long chain homodimer; also called OA mutation chain; Mutation OA chain
The experiment can be described thus: three independent co-transfections in HEK293, protein A bead pull-down, SDS-PAGE (FIG. 6).

Method: DNA encoding long chain and short chain were mixed with 1:1 ratio and transfected into HEK293 cells. Three days later, cell culture supernatants were harvested and subjected to magnetic protein A beads pull-down. Proteins bound to magnetic beads were analyzed by SDS-PAGE electrophoresis.
Various positive charged and negative charged polypeptide chain combinations were co-expressed in HEK 293 cells. […] Three days after transfection, cell culture supernatants were harvested by centrifugation and subjected to protein A magnetic beads (Pierce) pull down. Protein products bound on magnetic beads were characterized based on their mobility on SDS-PAGE gel electrophoresis. Collected protein A magnetic beads with bound proteins were re-suspended in 30 μL PBS buffer, mixed with 30 μL of SDS-PAGE loading buffer and boiled for 5 min. Half volume of boiled samples was loaded onto 10% SDS-PAGE to separate long chain homodimer, long chain and short chain heterodimer and short chain homodimer.

B1: Mutant OB chain (short chain, hinge-CH2-CH3 with T394D, P395D, P396D) (other, human, UniProt P01857-1 104-330, looked up, name in EU numbering)
chain: DKTHTCPPCPAPELLGGPSVFLFPPKPKDTLMISRTPEVTCVVVDVSHEDPEVKFNWYVDGVEVHNAKTKPREEQYNSTYRVVSVLTVLHQDWLNGKEYKCKVSNKALPAPIEKTISKAKGQPREPQVYTLPPSRDELTKNQVSLTCLVKGFYPSDIAVEWESNGQPENNYKTDDDVLDSDGSFFLYSKLTVDKSRWQQGNVFSCSVMHEALHNHYTQKSLSLSPGK
notes: domain: hinge-CH2-CH3; also called OB mutation chain; Mutation OB chain
In the case of B1, the binding result was “binds”.

For the origin of these results see patent US20190119406A1 (BISON THERAPEUTICS, published 2019).
